The target in this test is microtubule. In words: optical trap binding-time assay; kinesin held by its C-terminal His tag on a polystyrene bead (0.56 um, streptavidin with biotinylated penta-His antibody), at most one motor per bead, trapped 0, 20, 40 or 60 nm from a surface-attached microtubule; binding time = time from unbinding to the next detectable bead displacement (>15 nm); room temperature; motility buffer (80 mM Pipes pH 6.9, 50 mM CH3COOK, 4 mM MgSO4, 1 mM DTT, 1 mM EGTA, 10 uM taxol, 1 mg/mL casein) with 2 mM ATP and an oxygen-scavenging system; the rates of Table 1 are fits of Brownian dynamics models to the mean binding times of all three motor lengths together.
“DK-560-His (Kinesin-1, aa 1-560; His tag at c-term) (from UniProt P17210 1-560) (domain or fragment)”: the binding time (plateau at close distances) stood at 1 s; the koff^ADP,fast (rate of the weak-to-strong binding transition on the microtubule; diffusion with ADP state model) turned out to be 2.12 s⁻¹; the koff^MT (unbinding from the weakly bound state, at zero force; diffusion with ADP state model) turned out to be 0.2 s⁻¹; the kon^MT (microscopic first-order binding rate when the head is within 5 nm of the microtubule; diffusion with ADP state model) worked out at 70.7 s⁻¹. Moreover, the kon^MT (microscopic first-order binding rate; simple diffusion model) came to 80.6 s⁻¹.

“DK-746-His (Drosophila Kinesin aa 1-746; His tag at c-term) (from UniProt P17210 1-746) (domain or fragment)”: the binding time (plateau at close distances) came out at 1 s; the koff^ADP,fast (rate of the weak-to-strong binding transition on the microtubule; diffusion with ADP state model) worked out at 2.12 s⁻¹; the koff^MT (unbinding from the weakly bound state, at zero force; diffusion with ADP state model) was determined as 0.2 s⁻¹; the kon^MT (microscopic first-order binding rate when the head is within 5 nm of the microtubule; diffusion with ADP state model) turned out to be 70.7 s⁻¹. The kon^MT (microscopic first-order binding rate; simple diffusion model) was determined as 80.6 s⁻¹.

On to “DK-406-His (Drosophila Kinesin aa 1-406; His tag at c-term) (from UniProt P17210 1-406) (domain or fragment)”, for which the binding time (plateau at close distances) stood at 1 s; the koff^ADP,fast (rate of the weak-to-strong binding transition on the microtubule; diffusion with ADP state model) came to 2.12 s⁻¹; the koff^MT (unbinding from the weakly bound state, at zero force; diffusion with ADP state model) came out at 0.2 s⁻¹; the kon^MT (microscopic first-order binding rate when the head is within 5 nm of the microtubule; diffusion with ADP state model) worked out at 70.7 s⁻¹. The kon^MT (microscopic first-order binding rate; simple diffusion model) was determined as 80.6 s⁻¹.

The values are drawn from PMC11142708.
